Tests used:
Hfq [1] = target: T1, Hfq (UniProt P0A6X3 1-102); assay: EMSA
Hfq [2] = target: T1, Hfq; assay: EMSA; remark: listed apart in the source

T1 sequence (P0A6X3 whole entry): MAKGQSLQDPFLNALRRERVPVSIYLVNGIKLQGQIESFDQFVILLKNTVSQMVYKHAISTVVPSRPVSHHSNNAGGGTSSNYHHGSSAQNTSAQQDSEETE

Row | Binder | Kd (Hfq [1]) [nM] | binding result (Hfq [2])
1 | MicAstab (structured_RNA) RNA: GAAAGACGCGCAUUUGUUAUCAUCAUCCCUGGGAAAGCGACCGUUUCCCUGGCCACUCACGAGUGGCCUUUUAAAA | 1.5 | 
2 | MicAstab + ompA leader (structured_RNA) RNA 1: GAAAGACGCGCAUUUGUUAUCAUCAUCCCUGGGAAAGCGACCGUUUCCCUGGCCACUCACGAGUGGCCUUUUAAAA RNA 2: GGGCCAGGGGUGCUCGGCAUAAGCCGAAGAUAUCGGUAGAGUUAAUAUUGAGCAGAUCCCCCGGUGAAGGAUUUAACCGUGUUAUCUCGUUGGAGAUAUUCAUGGCGUAUUUUGGAUGAUAACGAGGCGCAAAAAAUGAAAAAGACAGCUAUCGCGAUUGCAGUGGCA |  | binds
